Measured values as given in publication PMC4655421.

System: C=C(OP(=O)(O)O)C(=O)O
Test: Steady-state ATP production by pyruvate kinase monitored by Rho-MatB
Format: biochemical, rabbit
Details: pH 7.5
[1] = other: single curve fit, Figure 6B, 250 μM ADP, 20 °C

pyruvate kinase (Oryctolagus cuniculus)
Km (other: n = 5, 20.0 °C): 103 µM | Km [1]: 75.5 ± 3.4 µM | Vmax [1]: 0.019 ± 0.002 μM s^–1
